Laboratory results as given in article PMC9354048.

Biological target: (opt)EsTKγ (Eptatretus stouti thread keratin γ, from a codon-optimised gene) (Eptatretus stouti)
Assay: co-assembly by dialysis out of urea, gel separated by ultrafiltration centrifugation and analysed by SDS-PAGE; crudely purified proteins, each 1.0 mg/ml in 8 M urea, 0.02 M NaH2PO4, 0.5 M NaCl, mixed 1:1; gradient dialysis 8 M to 4 M to 2 M to 0 M urea in 2 mM Tris, 1 mM DTT, pH 9, 4°C, 72 h; concentrated in a 10 kDa ultrafiltration tube; gel-like product picked up, diluted and run on SDS-PAGE

- stoichiometry N: 1
Substance: (opt)EsTKα (Eptatretus stouti thread keratin α, from a codon-optimised gene) (natural protein)
